Here are results for 61 substances from the supplement of paper PMC10598134.

± gives the standard deviation.

This data set can be described thus: collision cross section of modified peptide (TIMS, N2, iRT-aligned); higher = larger / more extended gas-phase ion. In outline: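 On a timsTOF Pro/HT (dda-PASEF, nitrogen, ~2.4 mbar), synthetic peptide pools were analysed after a 120-min nanoflow C18 separation at 60 °C and identified in MaxQuant. Three reference ions served for 1/K0 calibration, with run-wise alignment to the median iRT peptide deviation. Collision cross section comes from the Mason-Schamp equation, using the most abundant feature per charge state averaged over 1–3 technical replicates.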

Where [1] appears, read: charge state: 2, modification: Citrullination (R).
Setting [2] is: charge state: 2, modification: Biotin.
[3] abbreviates: charge state: 3, modification: Biotin.
[4] abbreviates: charge state: 3, modification: Dimethyl (K).
The mark [5] stands for this setting: charge state: 2, modification: hydroxyisobutyryl.
The mark [6] stands for this setting: charge state: 2, modification: HexNAc (ST).
Where [7] appears, read: charge state: 2, modification: Hydroxyproline.
Where [8] appears, read: charge state: 2, modification: Acetyl (K).
Setting [9] is: charge state: 3, modification: Acetyl (K).
[10] abbreviates: charge state: 2, modification: Trimethyl (K).
Setting [11] is: charge state: 3, modification: Trimethyl (K).
Where [12] appears, read: charge state: 2, modification: GlyGly (K).
Setting [13] is: charge state: 3, modification: GlyGly (K).
[14] abbreviates: charge state: 2, modification: Glutarylation.
Where [15] appears, read: charge state: 3, modification: Glutarylation.
Setting [16] is: charge state: 3, modification: Methyl (R).
[17] abbreviates: charge state: 2, modification: Formyl.
The mark [18] stands for this setting: charge state: 2, modification: Malonyl.
The mark [19] stands for this setting: charge state: 3, modification: Formyl.
Setting [20] is: charge state: 2, modification: Butyryl.
Setting [21] is: charge state: 2, modification: Dimethyl (K).
Where [22] appears, read: charge state: 2, modification: Nitro (Y).
Setting [23] is: charge state: 2, modification: Phospho (Y).
The mark [24] stands for this setting: charge state: 2, modification: Crotonyl.
The mark [25] stands for this setting: charge state: 3, modification: Crotonyl.

In turn, “PARGLYSR [_PAR(Citrullination (R))GLYSR_]” returned a collision cross section under setting [1] of 324.52 ± 2.2 Å².

As for KYEEIDNAPEER [_K(Biotin)YEEIDNAPEER_], the collision cross section is reported as 430.04 ± 3.1 Å² under setting [2] and 521.46 ± 0.34 Å² under setting [3].

Take “VGIDTPDIDIHGPEGKLK [_VGIDTPDIDIHGPEGK(Dimethyl (K))LK_]”: under setting [4], the collision cross section came to 537.38 ± 0.61 Å².

Substance “SGFGKFER [_SGFGK(hydroxyisobutyryl)FER_]” came in with a collision cross section under setting [5] of 340.58 ± 1.9 Å².

For the substance APIISGVTK [_APIIS(HexNAc (ST))GVTK_], the collision cross section under setting [6] is on record as 340.53 ± 0.64 Å².

Under setting [7], PGPRGQR [_P(Hydroxyproline)GPRGQR_] returned a collision cross section of 294.67 Å².

With “VGLQVVAVKAPGFGDNR [_VGLQVVAVK(Acetyl (K))APGFGDNR_]”, the collision cross section reads like this: under setting [8], 442.66 ± 2 Å²; under setting [9], 493.83 ± 2.3 Å².

For the substance “GFALVGVGSEASSKK [_GFALVGVGSEASSK(Trimethyl (K))K_]”, the collision cross section by setting is: under setting [10], 444.52 ± 0.57 Å²; under setting [11], 489.21 ± 1.8 Å².

For the substance “VGIDTPDIDIHGPEGKLK [_VGIDTPDIDIHGPEGK(GlyGly (K))LK_]”, the collision cross section is given as 467.27 Å² under setting [12] and 525.5 ± 1.3 Å² under setting [13].

In the case of IQTKAGEATVK [_IQTK(GlyGly (K))AGEATVK_], the collision cross section under setting [12] came to 373.63 ± 0.56 Å² and the collision cross section under setting [13] is recorded as 455.83 Å².

As for ISALQGKLSK [_ISALQGK(Succinyl)LSK_], the collision cross section (charge state: 2, modification: Succinyl) turned out to be 354.02 ± 1.3 Å².

With “IHVQSSSDSSDEPAEKR [_IHVQSSSDSSDEPAEK(GlyGly (K))R_]”, the collision cross section is, setting by setting: under setting [12], 469.51 Å²; under setting [13], 539.73 ± 0.58 Å².

Regarding “DTPTSAGPNSFNKGK [_DTPTSAGPNSFNK(Gluratylation)GK_]”, the collision cross section was found to be 415.83 ± 1.8 Å² under setting [14] and 444.87 ± 1.9 Å² under setting [15].

Regarding “GFGRGGAESHTFK [_GFGR(Methyl (R))GGAESHTFK_]”, the collision cross section under setting [16] is 473.29 ± 3 Å².

On to “GGGDRGGFGPGK [_GGGDR(Citrullination (R))GGFGPGK_]”, for which the collision cross section under setting [1] was found to be 334.18 ± 0.75 Å².

“GDTGLPGPQGIPGGVGSPGR [_GDTGLPGPQGIP(Hydroxyproline)GGVGSPGR_]” returned a collision cross section under setting [7] of 430.06 ± 1.1 Å².

In the case of “FLQEFYQDDELGKK [_FLQEFYQDDELGK(Formyl)K_]”, the collision cross section under setting [17] stood at 444.03 ± 0.77 Å².

Under setting [18], ITGKNQVTATK [_ITGK(Malonyl)NQVTATK_] returned a collision cross section of 362.15 ± 0.018 Å².

Substance ITLSKHQNVQLPR [_ITLSK(Formyl)HQNVQLPR_] yielded a collision cross section under setting [17] of 435.58 ± 0.72 Å² and a collision cross section under setting [19] of 504.15 ± 24 Å².

“GFALVGVGSEASSKK [_GFALVGVGSEASSK(Butyryl)K_]”: the collision cross section is, setting by setting: under setting [20], 447.9 ± 0.87 Å²; (charge state: 3, modification: Butyryl) 499.86 ± 2.6 Å².

“TTGFYSGFSEVAEKR [_TTGFYSGFSEVAEK(Dimethyl (K))R_]”: the collision cross section by setting is: under setting [21], 453.39 ± 1.3 Å²; under setting [4], 504.73 ± 0.75 Å².

Substance “VTLEVGKVIQQGR [_VTLEVGK(Methyl (K))VIQQGR_]” yielded a collision cross section (charge state: 2, modification: Methyl (K)) of 428.74 ± 1.9 Å² and a collision cross section (charge state: 3, modification: Methyl (K)) of 464.87 ± 3.7 Å².

Substance “LGNTISSLFGGGTTPDAK [_LGNTISSLFGGGT(HexNAc (ST))TPDAK_]” displayed a collision cross section under setting [6] of 471.52 Å².

In the case of LAEEENKAK [_LAEEENK(Malonyl)AK_], the collision cross section under setting [18] turned out to be 346.72 ± 0.74 Å².

Under setting [6], “SFSASGAQIVSR [_SFSASGAQIVS(HexNAc (ST))R_]” returned a collision cross section of 387.57 ± 0.63 Å².

The substance VDATADYICK [_VDATADY(Nitro (Y))ICK_] gave a collision cross section under setting [22] of 358.43 ± 0.17 Å².

The substance “AGPNASIISLKSDK [_AGPNASIISLK(Biotin)SDK_]” registered a collision cross section under setting [2] of 431.71 ± 1.7 Å² and a collision cross section under setting [3] of 469.41 Å².

As to ASCLYGQLPK [_ASCLY(Phospho (Y))GQLPK_], the collision cross section under setting [23] is on record as 373.97 ± 0.65 Å².

On to TTEETSKPK [_TTEETSK(GlyGly (K))PK_], for which the collision cross section by setting is: under setting [12], 355.85 ± 0.24 Å²; under setting [13], 431.05 ± 2.7 Å².

Substance “GFCFITYTDEEPVKK [_GFCFITYTDEEPVK(Formyl)K_]” displayed a collision cross section under setting [17] of 450.51 Å².

Turning to “TLDEILQEKK [_TLDEILQEK(hydroxyisobutyryl)K_]”, the collision cross section under setting [5] was determined as 386.54 ± 0.81 Å².

Under “charge state: 3, modification: Hydroxyproline”, “GPPGPPGRPGNSGIR [_GPPGPPGRP(Hydroxyproline)GNSGIR_]” gave a collision cross section of 429.49 ± 1.3 Å².

For the substance “VSPASSVDSNIPSSQGYKK [_VSPASSVDSNIPSSQGYK(Formyl)K_]”, the collision cross section came out at 457.96 ± 0.14 Å² under setting [17] and 550.3 ± 3 Å² under setting [19].

As to “TEVLSPNSKVESK [_TEVLSPNSK(Gluratylation)VESK_]”, the collision cross section under setting [14] was found to be 408.15 ± 0.5 Å² and the collision cross section under setting [15] was 453.95 ± 1.7 Å².

In the case of “IVFSGNLFQHQEDSKK [_IVFSGNLFQHQEDSK(Crotonyl)K_]”, the collision cross section runs as follows: under setting [24], 503.03 ± 1.1 Å²; under setting [25], 539.53 ± 1.2 Å².

The substance “IQTKAGEATVK [_IQTK(hydroxyisobutyryl)AGEATVK_]” yielded a collision cross section under setting [5] of 374.42 ± 0.28 Å².

“SPDEAYAIAKK [_SPDEAYAIAK(Gluratylation)K_]” gave a collision cross section under setting [14] of 380.21 ± 0.73 Å² and a collision cross section under setting [15] of 455.46 ± 1.2 Å².

For the substance “SKLLFSNTAAQK [_SK(Dimethyl (K))LLFSNTAAQK_]”, the collision cross section under setting [21] is 389.15 Å².

Substance “ALASIDSKLNQAK [_ALASIDSK(Malonyl)LNQAK_]” displayed a collision cross section under setting [18] of 399.65 ± 0.028 Å².

In the case of “ASAISIKLGSSK [_ASAISIK(Gluratylation)LGSSK_]”, under setting [14], the collision cross section stood at 376.68 ± 0.1 Å².

“SLFFGGKGAPLQR [_SLFFGGK(Trimethyl (K))GAPLQR_]”: the collision cross section reads like this: under setting [10], 413.8 ± 0.016 Å²; under setting [11], 456.34 ± 1.8 Å².

“ATVASSTQKFQDLGVK [_ATVASSTQK(Acetyl (K))FQDLGVK_]”: the collision cross section is listed as 445.22 ± 2.2 Å² under setting [8] and 493.63 ± 0.33 Å² under setting [9].

In turn, “DYSSGFGGKYGVQADR [_DYSSGFGGK(hydroxyisobutyryl)YGVQADR_]” had a collision cross section under setting [5] of 442.2 ± 0.79 Å².

GLPGEPGPR [_GLPGEP(Hydroxyproline)GPR_] had a collision cross section under setting [7] of 312.79 ± 1.3 Å².

Under “charge state: 3, modification: HexNAc (ST)”, “TTLTSDESVKDHTTAGR [_TTLTS(HexNAc (ST))DESVKDHTTAGR_]” yielded a collision cross section of 545.39 ± 0.18 Å².

Consider VYSGHQGR [_VY(Nitro (Y))SGHQGR_], for which the collision cross section runs as follows: under setting [22], 327.94 ± 0.59 Å²; (charge state: 3, modification: Nitro (Y)) 418.62 ± 1.2 Å².

Turning to ITGKNQVTATK [_ITGK(Formyl)NQVTATK_], the collision cross section under setting [17] is listed as 360.79 ± 0.79 Å².

Regarding VETTVTSLKTK [_VETTVTSLK(Crotonyl)TK_], under setting [24], the collision cross section turned out to be 389.71 ± 0.89 Å².

As for ISALQGKLSK [_ISALQGK(Crotonyl)LSK_], the collision cross section under setting [24] came to 358.67 ± 0.88 Å².

Regarding “SYGIPYIETSAK [_SY(Phospho (Y))GIPYIETSAK_]”, the collision cross section under setting [23] came out at 390.55 ± 0.64 Å².

On to “HTLLRAPAPELLPANVAGR [_HTLLR(Methyl (R))APAPELLPANVAGR_]”, for which, under setting [16], the collision cross section turned out to be 530.63 ± 1.2 Å².

Consider “GGPGSTLSFVGKR [_GGPGSTLSFVGK(Trimethyl (K))R_]”, for which the collision cross section is, setting by setting: under setting [10], 401.16 Å²; under setting [11], 424.62 ± 2.4 Å².

For “ISPVEESEDVSNK [_ISPVEES(HexNAc (ST))EDVSNK_]”, under setting [6], the collision cross section worked out at 415.06 ± 0.62 Å².

For “SDSGKPYYYNSQTK [_SDSGK(GlyGly (K))PYYYNSQTK_]”, the collision cross section reads like this: under setting [12], 428.35 ± 1.4 Å²; under setting [13], 476.2 ± 1.7 Å².

Under setting [16], “SGGGYGGDRGGGYGGDR [_SGGGYGGDR(Methyl (R))GGGYGGDR_]” had a collision cross section of 461.83 ± 3 Å².

In the case of “VFIGNLNTLVVKK [_VFIGNLNTLVVK(Crotonyl)K_]”, the collision cross section by setting is: under setting [24], 413.58 ± 0.34 Å²; under setting [25], 479.51 Å².

In the case of “DFAFYNPRLQGK [_DFAFYNPR(Citrullination (R))LQGK_]”, the collision cross section by setting is: under setting [1], 400.16 ± 0.22 Å²; (charge state: 3, modification: Citrullination (R)) 473.76 Å².

Take LAEEENKAK [_LAEEENK(Crotonyl)AK_]: the collision cross section under setting [24] was found to be 351.41 ± 1.1 Å².

“AAINQKLIETGER [_AAINQK(Butyryl)LIETGER_]”: the collision cross section under setting [20] came to 410.95 ± 1.7 Å².

In the case of “STGLELETPSLVPVKK [_STGLELETPSLVPVK(Trimethyl (K))K_]”, the collision cross section by setting is: under setting [10], 461.73 ± 1.2 Å²; under setting [11], 522.47 ± 0.88 Å².

As to GLQGPPGK [_GLQGPP(Hydroxyproline)GK_], the collision cross section under setting [7] was 294.56 ± 0.29 Å².
